# Test results published in US20080274976A1.
# “And” between values parts separate entries of the source, which are not always exact repeats. Equal values may be shown once.
# Legend:
# [1] = target: TSha1 K+ channel from trout (trout); assay: closed channel binding, ratio of Table III values
# [2] = target: TSha1 K+ channel from trout (trout); assay: open channel binding, ratio of Table III values
# Shaker-Δ6-46 K+ channel = Shaker-Δ6-46 K+ channel (UniProt P08510); assay: comparison of open- and closed-state KD, voltage clamp in Xenopus oocytes
# Sequence of Shaker-Δ6-46 K+ channel (P08510 other isoform, or with tags, fused parts or gaps mutant): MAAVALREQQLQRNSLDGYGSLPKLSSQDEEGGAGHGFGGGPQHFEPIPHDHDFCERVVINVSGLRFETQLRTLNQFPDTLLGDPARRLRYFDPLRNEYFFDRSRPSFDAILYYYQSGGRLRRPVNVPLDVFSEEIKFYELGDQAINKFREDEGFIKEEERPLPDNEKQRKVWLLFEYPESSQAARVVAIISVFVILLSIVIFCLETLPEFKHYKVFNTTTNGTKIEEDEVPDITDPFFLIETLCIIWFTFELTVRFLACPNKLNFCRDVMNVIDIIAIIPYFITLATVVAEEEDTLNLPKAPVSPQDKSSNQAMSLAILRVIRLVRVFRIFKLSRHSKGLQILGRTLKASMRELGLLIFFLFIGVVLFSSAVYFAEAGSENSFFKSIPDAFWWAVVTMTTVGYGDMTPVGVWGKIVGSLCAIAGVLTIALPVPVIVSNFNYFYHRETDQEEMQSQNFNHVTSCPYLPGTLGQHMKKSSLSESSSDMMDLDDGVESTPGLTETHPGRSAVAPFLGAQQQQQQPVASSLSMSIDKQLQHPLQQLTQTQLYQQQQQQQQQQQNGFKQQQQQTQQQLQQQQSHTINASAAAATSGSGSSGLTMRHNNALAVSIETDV
# Sequence of TSha1 K+ channel from trout (trout) (Q9I830 whole entry): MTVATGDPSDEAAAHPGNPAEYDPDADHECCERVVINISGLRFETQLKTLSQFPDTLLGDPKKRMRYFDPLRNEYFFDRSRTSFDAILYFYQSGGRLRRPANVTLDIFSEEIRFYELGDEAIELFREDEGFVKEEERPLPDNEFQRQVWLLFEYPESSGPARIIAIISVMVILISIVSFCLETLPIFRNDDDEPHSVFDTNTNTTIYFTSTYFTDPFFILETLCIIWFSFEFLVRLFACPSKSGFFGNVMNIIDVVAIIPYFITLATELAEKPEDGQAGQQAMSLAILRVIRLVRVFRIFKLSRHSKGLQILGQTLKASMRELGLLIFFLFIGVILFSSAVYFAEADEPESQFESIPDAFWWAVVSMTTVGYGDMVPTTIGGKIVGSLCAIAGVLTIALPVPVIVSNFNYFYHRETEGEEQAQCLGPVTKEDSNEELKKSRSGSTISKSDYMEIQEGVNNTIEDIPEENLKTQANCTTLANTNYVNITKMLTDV
substance,measurement,setting,value
κM-conotoxin RIIIK (peptide),fold higher k(C)on than in the Shaker-Δ6-46 channel,[1],4 fold
same,fold higher k(O)on than in the Shaker-Δ6-46 channel,[2],3 fold
same,fold smaller k(O)off than in the Shaker-Δ6-46 channel,[2],20 fold
same,fold lower affinity for the open state (0 mV) than for the closed state,Shaker-Δ6-46 K+ channel,3 fold and 4 fold
